In article PMC3298459:

Assays:
purified protein [1] = substrate: O=C1O[C@@H](COP(=O)(O)O)[C@H](O)[C@@H]1O; assay: purified protein; assay type: biochemical, Halalkalibacterium halodurans; details: [Co/Co] form, 2.5 mM Bicine pH 8.3, 0.2 M NaCl, 1% DMSO
purified protein [2] = substrate: O=C1O[C@H](COP(=O)(O)O)[C@H](O)[C@@H]1O; assay: purified protein; assay type: biochemical, Halalkalibacterium halodurans; details: [Co/Co] form, 2.5 mM Bicine pH 8.3, 0.2 M NaCl, 1% DMSO

B1: Bh0225 (Halalkalibacterium halodurans C-125) (protein)
chain: MSFIRTLRGDINPEELGFTYSHEHIVCRPDYWVQRQEGDLLLDDKEKSKRDVEDFKRHGGNSIVDATAVDYGRDVGAVKAISDELDVHIIGTAGFNKSFLWNAKIKEELKPIIGGQYDTFAEWIDGSTIHDLTEFVVREVEEGLEGTPWKAGQVKFGTGYNRISPLEEKTLRAVARAHHETKAPIHSHTEVGTMALEQIELLKSEGINLEHVSIGHMDRNPDPYYHEQIAKTGAFLSFDGIGKIKYAPESTRIHCILELVKKGYDQQILISGDTARKTYYKHYDYGLGLEYIIAKWIPRFISEANHRGFDGEALIHTFFVENPARCFAFKL
With B1 as the protein, how does the Km (purified protein [1]) read?
Its Km is 200 ± 20 µM.

What about the kcat (purified protein [1]) of the same protein?
Its kcat is 30 ± 1 s⁻¹.

What about the kcat/Km (purified protein [1]) of the same protein?
Its kcat/Km is 150000 ± 15000 M⁻¹ s⁻¹.

What about the Km (purified protein [2]) of the same protein?
The Km was 240 ± 20 µM.

What about the kcat (purified protein [2]) of the same protein?
The kcat was 24 ± 1 s⁻¹.

And the kcat/Km (purified protein [2])?
Its kcat/Km is 100000 ± 10000 M⁻¹ s⁻¹.
